# From patent CN112375147A (THE THIRD AFFILIATED HOSPITAL NAVAL MEDICAL UNIV OF PLA, dated 2021)
# Target: T1, YKL-40 (native, secreted); in serum of patients with hepatocellular carcinoma lung metastasis and in culture … (human, UniProt P36222 22-383)
# T1 construct: mature; Endogenous secreted protein, not a recombinant construct; also called Chi3l1; BRP39
# Test: ELISA of YKL-40 left detectable in patient serum (1:100) after overnight incubation at 4 C with 10 ug/mL antibody, IgG control
# T1 sequence (P36222 22-383): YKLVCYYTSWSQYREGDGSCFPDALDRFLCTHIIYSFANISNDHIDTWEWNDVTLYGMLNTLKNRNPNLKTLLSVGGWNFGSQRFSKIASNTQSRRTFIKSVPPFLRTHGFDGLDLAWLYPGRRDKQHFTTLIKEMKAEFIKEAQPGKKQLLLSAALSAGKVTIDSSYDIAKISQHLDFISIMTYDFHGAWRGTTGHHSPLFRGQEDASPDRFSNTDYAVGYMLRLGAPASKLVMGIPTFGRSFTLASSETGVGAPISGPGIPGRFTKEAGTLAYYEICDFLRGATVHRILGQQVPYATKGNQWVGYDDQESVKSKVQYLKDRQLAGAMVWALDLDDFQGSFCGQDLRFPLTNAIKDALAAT
binder,measurement,value
"抗人YKL-40中和性单克隆抗体 (antibody, V domains shown, Monoclonal antibody from mouse immunisation (hybridoma Hyb-NAY); also called N-AY; YKL-40中和性单抗) VH: EVKLEESGGGLVQPGGSMKLSCAASGFTLSDAWMDWVRQSPEKGLEWVAEIRSKGNNHTPYYAESVKGRFTISRDDSRNSVYLQMNTLRAEDTGTYYCTRTVYYYGSSSCAMDYWGQGTSVTVSS VL: DIQMTQSPASLSASVGETVTITCGASENIYGALNWYQRKQGKSPQLLIFGASNLADDMSSRFSGSGSGRQYSLKISSLHPDDVATYFCQNVLRTPWTFGGGTNLEIK",binding result,binds
